According to paper PMC6474364, “The Carbon Switch at the Level of Pyruvate and Phosphoenolpyruvate in Sulfolobus solfataricus P2” (Frontiers in Microbiology, 2019):

Tests used:
[1] = molecular target: T1, PEPS (SSO0883) (Saccharolobus solfataricus, UniProt Q97ZL2); assay: discontinuous assay, PEP detected with PK/LDH, NADH […] nm; assay type: biochemical; conditions: read-out: % residual activity at 1 mM
T1 construct: gene ppsA-1; full-length, codon-optimised synthetic gene in pET11c, E. coli Rosetta (DE3) pRIL; partially purified by heat precipitation; no tag mentioned
T1 sequence (Q97ZL2 1-799): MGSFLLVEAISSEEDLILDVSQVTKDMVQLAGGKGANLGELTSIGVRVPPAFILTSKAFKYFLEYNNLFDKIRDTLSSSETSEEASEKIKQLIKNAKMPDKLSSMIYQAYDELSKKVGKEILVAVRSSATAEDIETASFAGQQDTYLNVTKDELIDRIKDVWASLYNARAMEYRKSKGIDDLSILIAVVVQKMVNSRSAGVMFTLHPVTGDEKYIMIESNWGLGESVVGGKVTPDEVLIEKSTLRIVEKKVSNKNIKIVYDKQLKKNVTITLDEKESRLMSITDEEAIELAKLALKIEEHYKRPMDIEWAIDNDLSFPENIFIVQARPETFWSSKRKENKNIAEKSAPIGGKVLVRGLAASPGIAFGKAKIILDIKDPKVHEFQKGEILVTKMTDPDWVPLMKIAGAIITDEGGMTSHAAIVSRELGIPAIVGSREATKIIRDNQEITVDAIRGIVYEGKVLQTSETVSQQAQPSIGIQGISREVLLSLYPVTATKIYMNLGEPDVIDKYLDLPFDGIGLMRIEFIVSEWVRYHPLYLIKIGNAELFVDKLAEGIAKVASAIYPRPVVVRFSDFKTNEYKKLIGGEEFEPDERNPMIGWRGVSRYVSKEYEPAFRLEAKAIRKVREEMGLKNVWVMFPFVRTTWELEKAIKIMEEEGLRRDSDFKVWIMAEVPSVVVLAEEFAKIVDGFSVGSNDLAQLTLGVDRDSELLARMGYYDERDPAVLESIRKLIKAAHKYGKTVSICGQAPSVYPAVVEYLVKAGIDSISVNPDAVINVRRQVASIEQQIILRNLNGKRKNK

[2] = molecular target: T2, PK (SSO0981) (Saccharolobus solfataricus, UniProt Q97ZD7); assay: continuous LDH-coupled assay, NADH […] nm; assay type: biochemical; conditions: non-competitive, allosteric; printed Ki equals the approximate concentration for 50% inhibition; half-saturating 0.03 mM PEP, 2 mM ADP, 10 mM MgCl2, 60°C (b61 says 70°C)
T2 construct: gene pyK; full-length ORF in pET324, E. coli Rosetta (DE3) pRIL; heat precipitation, ion exchange, gel filtration; no tag mentioned
T2 sequence (Q97ZD7 1-452): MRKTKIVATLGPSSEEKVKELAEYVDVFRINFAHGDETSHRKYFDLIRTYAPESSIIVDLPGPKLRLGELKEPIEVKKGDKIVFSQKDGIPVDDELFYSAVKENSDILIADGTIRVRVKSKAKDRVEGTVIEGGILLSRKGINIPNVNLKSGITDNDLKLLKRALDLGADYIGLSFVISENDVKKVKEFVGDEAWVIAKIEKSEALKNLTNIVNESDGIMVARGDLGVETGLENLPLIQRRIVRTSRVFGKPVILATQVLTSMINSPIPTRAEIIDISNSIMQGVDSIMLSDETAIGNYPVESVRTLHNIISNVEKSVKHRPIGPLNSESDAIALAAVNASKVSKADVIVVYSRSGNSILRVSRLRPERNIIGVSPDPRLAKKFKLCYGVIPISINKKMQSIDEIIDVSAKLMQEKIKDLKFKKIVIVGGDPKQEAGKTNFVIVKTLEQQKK

[3] = substrate: CC(=O)C(=O)O; assay: purified protein; assay type: biochemical, Saccharolobus solfataricus; conditions: 70°C, pH 7.0, 100 mM Tris/HCl, 10 mM MgCl2, co-substrate ATP, anabolic direction
[4] = substrate: Nc1ncnc2c1ncn2[C@@H]1O[C@H](COP(=O)(O)OP(=O)(O)OP(=O)(O)O)[C@@H](O)[C@H]1O; assay: purified protein; assay type: biochemical, Saccharolobus solfataricus; conditions: 70°C, pH 7.0, 100 mM Tris/HCl, 10 mM MgCl2, co-substrate pyruvate, anabolic direction
[5] = substrate: C=C(OP(=O)(O)O)C(=O)O; assay: purified protein; assay type: biochemical, Saccharolobus solfataricus; conditions: 70°C, pH 6.5, 0.1 M HEPES, 10 mM MgCl2, co-substrate ADP
[6] = substrate: Nc1ncnc2c1ncn2[C@@H]1O[C@H](COP(=O)(O)OP(=O)(O)O)[C@@H](O)[C@H]1O; assay: purified protein; assay type: biochemical, Saccharolobus solfataricus; conditions: 70°C, pH 6.5, 0.1 M HEPES, 10 mM MgCl2, co-substrate PEP

For `Nc1ncnc2c1ncn2[C@@H]1O[C@H](COP(=O)(O)O)[C@@H](O)[C@H]1O` [AMP], which remaining activity at 1000 µM [1] is on record?
The remaining activity at 1000 µM was ~80%.

For `O=C(O)CCC(=O)C(=O)O` [α-ketoglutarate], which remaining activity at 1000 µM [1] is on record?
The remaining activity at 1000 µM was ~80%.

`Nc1ncnc2c1ncn2[C@@H]1O[C@H](COP(=O)(O)OP(=O)(O)OP(=O)(O)O)[C@@H](O)[C@H]1O` [ATP] was tested. Which IC50 [2] did it give?
Its IC50 is 800 µM.

B1: PEPS (SSO0883) (Saccharolobus solfataricus P2) (protein)
chain: MGSFLLVEAISSEEDLILDVSQVTKDMVQLAGGKGANLGELTSIGVRVPPAFILTSKAFKYFLEYNNLFDKIRDTLSSSETSEEASEKIKQLIKNAKMPDKLSSMIYQAYDELSKKVGKEILVAVRSSATAEDIETASFAGQQDTYLNVTKDELIDRIKDVWASLYNARAMEYRKSKGIDDLSILIAVVVQKMVNSRSAGVMFTLHPVTGDEKYIMIESNWGLGESVVGGKVTPDEVLIEKSTLRIVEKKVSNKNIKIVYDKQLKKNVTITLDEKESRLMSITDEEAIELAKLALKIEEHYKRPMDIEWAIDNDLSFPENIFIVQARPETFWSSKRKENKNIAEKSAPIGGKVLVRGLAASPGIAFGKAKIILDIKDPKVHEFQKGEILVTKMTDPDWVPLMKIAGAIITDEGGMTSHAAIVSRELGIPAIVGSREATKIIRDNQEITVDAIRGIVYEGKVLQTSETVSQQAQPSIGIQGISREVLLSLYPVTATKIYMNLGEPDVIDKYLDLPFDGIGLMRIEFIVSEWVRYHPLYLIKIGNAELFVDKLAEGIAKVASAIYPRPVVVRFSDFKTNEYKKLIGGEEFEPDERNPMIGWRGVSRYVSKEYEPAFRLEAKAIRKVREEMGLKNVWVMFPFVRTTWELEKAIKIMEEEGLRRDSDFKVWIMAEVPSVVVLAEEFAKIVDGFSVGSNDLAQLTLGVDRDSELLARMGYYDERDPAVLESIRKLIKAAHKYGKTVSICGQAPSVYPAVVEYLVKAGIDSISVNPDAVINVRRQVASIEQQIILRNLNGKRKNK
notes: full-length, codon-optimised synthetic gene in pET11c, E. coli Rosetta (DE3) pRIL; partially purified by heat precipitation; no tag mentioned
For B1, which Km [3] is on record?
The Km was 460 µM.

And the Vmax [3]?
The Vmax was 0.32 µmol/min/mg.

What about the kcat [3] of the same molecule?
Its kcat is 0.48 s⁻¹.

What about the kcat/Km [3] of the same molecule?
The kcat/Km was 1040 M⁻¹ s⁻¹.

And the Km [4]?
The Km was 610 µM.

And the Vmax [4]?
Its Vmax is 0.22 µmol/min/mg.

What about the kcat [4] of the same molecule?
The kcat was 0.33 s⁻¹.

What about the kcat/Km [4] of the same molecule?
Its kcat/Km is 530 M⁻¹ s⁻¹.

B2: PK (SSO0981) (Saccharolobus solfataricus P2) (protein)
chain: MRKTKIVATLGPSSEEKVKELAEYVDVFRINFAHGDETSHRKYFDLIRTYAPESSIIVDLPGPKLRLGELKEPIEVKKGDKIVFSQKDGIPVDDELFYSAVKENSDILIADGTIRVRVKSKAKDRVEGTVIEGGILLSRKGINIPNVNLKSGITDNDLKLLKRALDLGADYIGLSFVISENDVKKVKEFVGDEAWVIAKIEKSEALKNLTNIVNESDGIMVARGDLGVETGLENLPLIQRRIVRTSRVFGKPVILATQVLTSMINSPIPTRAEIIDISNSIMQGVDSIMLSDETAIGNYPVESVRTLHNIISNVEKSVKHRPIGPLNSESDAIALAAVNASKVSKADVIVVYSRSGNSILRVSRLRPERNIIGVSPDPRLAKKFKLCYGVIPISINKKMQSIDEIIDVSAKLMQEKIKDLKFKKIVIVGGDPKQEAGKTNFVIVKTLEQQKK
notes: full-length ORF in pET324, E. coli Rosetta (DE3) pRIL; heat precipitation, ion exchange, gel filtration; no tag mentioned
What does the source list for B2?
Km [5]: 90 µM; Vmax [5]: 70.4 µmol/min/mg; kcat [5]: 58.4 s⁻¹; kcat/Km [5]: 628000 M⁻¹ s⁻¹; Km [6]: 70 µM; Vmax [6]: 70.8 µmol/min/mg; kcat [6]: 58.8 s⁻¹; kcat/Km [6]: 852000 M⁻¹ s⁻¹
